One test deals with -. In words: competition binding, 125I-PTH(1-15) tracer, HKRK-B28 cells.
For a further test, the target named is hP1R (human) (UniProt Q03431). The test can be described thus: competition binding, 125I-PTH(1-15) tracer, HKRK-B7 cells.
Test [1] deals with wild-type human P1R (human) (UniProt Q03431). The description is as above.

From patent US20070203071A1 come the findings set out here.

Chain of [Ile^5, Trp^23, Tyr^36]PTHrP(5-36)NH2 (P12272 41-72): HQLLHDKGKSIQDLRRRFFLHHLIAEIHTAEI
Chain of hP1R (human) (Q03431 27-593): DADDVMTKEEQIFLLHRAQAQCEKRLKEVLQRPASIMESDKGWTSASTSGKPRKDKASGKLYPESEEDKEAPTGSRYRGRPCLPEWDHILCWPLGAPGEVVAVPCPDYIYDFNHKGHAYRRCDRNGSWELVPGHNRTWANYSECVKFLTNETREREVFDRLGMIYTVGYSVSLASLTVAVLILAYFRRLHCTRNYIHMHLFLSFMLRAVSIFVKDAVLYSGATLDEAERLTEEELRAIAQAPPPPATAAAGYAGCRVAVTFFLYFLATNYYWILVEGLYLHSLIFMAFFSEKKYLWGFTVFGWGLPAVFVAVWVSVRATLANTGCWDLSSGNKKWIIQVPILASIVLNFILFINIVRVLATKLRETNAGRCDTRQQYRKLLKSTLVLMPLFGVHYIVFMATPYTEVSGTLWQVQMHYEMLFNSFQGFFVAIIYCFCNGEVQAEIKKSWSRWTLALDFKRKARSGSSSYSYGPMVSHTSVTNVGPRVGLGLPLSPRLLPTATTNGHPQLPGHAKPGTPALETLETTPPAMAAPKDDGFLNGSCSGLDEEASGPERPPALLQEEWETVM
Chain of wild-type human P1R (human) (Q03431 27-593): as above

On to rPTH(1-34), for which, in the test with -, the IC50 was found to be 4.8 nM.

Regarding PTH(1-34), the IC50 in the test with hP1R (human) stood at 2 nM.

Substance [Aib1,3,M]PTH(1-21) came in with an IC50 with - of 18 nM.

“[Ile^5, Trp^23, Tyr^36]PTHrP(5-36)NH2 (from UniProt P12272 41-72)” came in with a half-inhibitory concentration (IC50) in test [1] of 50 nM.

[Aib3,M]PTH(3-21) gave an IC50 with - of 750 nM.
